From US20220356229A1 (published 2022)

Molecular target: SARS-CoV-2 Spike protein, wild type, full length (SARS-CoV-2, UniProt P0DTC2 14-1208)

B1: antibody 474 (antibody, V domains shown)
VH: EVQLVESGGGLVQPGGSLRLSCAASGFTFSSYWMHWVRQAPGKGLVWVSRINSDGSSTSYADSVKGRFTISRDNAKNTLYRQMNSLRAEDTAVYYCALGPLDIVGSYYYYGMDVWGQGTTVTVSS
VL: NFMLTQPHSVSESPGKTVTISCTGSSGSIASNYVQWYQQRPGSAPTTVIYEDNQRPSGVPDRFSGSIDSSSNSASLTISGLKTEDEADYYCQSYDSSNQDVVFGGGTKLTVL
binding signal (fold over isotype control): 1.47 fold over isotype
